Consider six molecules from article PMC4117581, “Strain-Specific Variation of the Decorin-Binding Adhesin DbpA Influences the Tissue Tropism of the Lyme Disease Spirochete” (PLoS Pathogens, 2014).

The target of assay [1] is Recombinant human decorin (human) (UniProt P07585). Briefly: ELISA; quantitative ELISA; 1 µg decorin coated on microtiter wells; 0.03125-2 µM histidine-tagged DbpA added; detected with mouse anti-histidine tag and HRP anti-mouse IgG; KD from a fit of the curve.
The target is the same in assay [2]. Briefly: SPR; Biacore 3000; 10 µg biotinylated decorin on an SA chip; 0-500 nM DbpA injected at 10 µL/min, 25°C; control flow cell with PBS; 1:1 Langmuir model.
The target in assay [3] is T1, Recombinant human decorin (human, UniProt P07585 31-359, biotin (biotinylated decorin on the SA chip in the SPR experiment; sites not stated)).
T1 construct: Decorin, human, recombinant; Decorin is a proteoglycan that carries dermatan sulfate; Secreted from CHO cells, so probably the mature protein (surmise); source: stably transfected Chinese hamster ovary cells (ATCC CCL 61), purified; gift from MedImmune
T1 sequence (P07585 31-359): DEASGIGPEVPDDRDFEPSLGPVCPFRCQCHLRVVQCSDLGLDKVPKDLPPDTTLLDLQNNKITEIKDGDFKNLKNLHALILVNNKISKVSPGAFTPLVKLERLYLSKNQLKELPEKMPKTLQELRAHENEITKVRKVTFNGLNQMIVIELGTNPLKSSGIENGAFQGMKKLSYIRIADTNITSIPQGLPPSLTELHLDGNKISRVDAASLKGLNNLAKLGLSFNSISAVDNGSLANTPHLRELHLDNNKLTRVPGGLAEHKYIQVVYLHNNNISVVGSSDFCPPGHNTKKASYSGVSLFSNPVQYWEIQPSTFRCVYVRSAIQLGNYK
Described as above. The settings on record: both partners purified.

The target in assay [4] is T1, Recombinant human decorin. Briefly: ELISA; quantitative ELISA; 1 µg decorin coated on microtiter wells; 0.03125-2 µM histidine-tagged DbpA added; detected with mouse anti-histidine tag and HRP anti-mouse IgG; KD from a fit of the curve. The settings on record: both partners purified.

Sequence of Recombinant human decorin (human) (P07585 31-359): as above

As for “DbpA297, recombinant histidine-tagged DbpA of B. burgdorferi strain 297 (from UniProt O50917 30-187) (natural protein)”, in assay [1], the dissociation constant (Kd) came to 140 nM. Moreover, in assay [2], the dissociation constant (Kd) amounted to 300 nM, the koff was 0.1 s⁻¹ and the on-rate constant (kon) was 351000 M⁻¹ s⁻¹.
For the molecule “DbpAPBr, recombinant histidine-tagged DbpA of B. garinii strain PBr (natural protein)”, in assay [1], the dissociation constant Kd was determined as 60 nM. In assay [2], the Kd was 90 nM, the koff stood at 0.13 s⁻¹ and the association rate constant (kon) was found to be 1.83e+06 M⁻¹ s⁻¹.
Regarding “DbpA_(B356), recombinant histidine-tagged DbpA of B. burgdorferi strain B356 (natural protein)”, in assay [1], the dissociation constant Kd amounted to 950 nM. Further, in assay [2], the dissociation constant (Kd) was 840 nM, the koff was determined as 0.06 s⁻¹ and the kon was 66000 M⁻¹ s⁻¹.
The corresponding values for “DbpA_(N40-D10/E9), recombinant histidine-tagged DbpA of B. burgdorferi strain N40-D10/E9 (from UniProt O50917 30-191) (natural protein)” are 850 nM, 710 nM, 0.07 s⁻¹ and 97000 M⁻¹ s⁻¹.
For “DbpA_(VS461), recombinant histidine-tagged DbpA of B. afzelii strain VS461 (natural protein)”, in that order: 290 nM, 260 nM, 0.04 s⁻¹ and 152000 M⁻¹ s⁻¹.

B1: DbpAB31, recombinant histidine-tagged DbpA of B. burgdorferi strain B31 (natural protein)
chain: ATKIRLERSAKDITDEIDAIKKDAALKGVNFDAFKDKKTGSGVSENPFILEAKVRATTVAEKFVIAIEEEATKLKETGSSGEFSAMYDLMFEVSKPLQKLGIQEMTKTVSDAAEENPPTTAQGVLEIAKKMREKLQRVHTKNYCTLKKKENSTFTDEKCKNN
As for B1, in assay [3], the Kd came to 280 nM, the koff turned out to be 0.11 s⁻¹ and the kon stood at 417000 M⁻¹ s⁻¹. Also, in assay [4], the Kd came out at 210 nM.
